# Measurements from US20040176573A1.
# Experiments:
# HLA-A11 (human) = experiment: assembly assay: stabilisation of 35S-labelled HLA-A11 from TAP-deficient cell lysate, W6/32 immunoprecipitation, IEF gel; conditions: remark: other sources report otherwise
# HLA-B7 (human) = experiment: assembly assay for peptide binding to MHC class I (HLA-B7)
binder,measurement,setting,value
LAQCFFCFK [Sur 54-62],C50,HLA-A11 (human),0.4 µM
RPPIFIRRL (modifications not checked) [C7],C50,HLA-B7 (human),0.5 µM
QPRAPIRPI (modifications not checked) [C6],C50,HLA-B7 (human),0.1 µM
